Measurements as given in the supplement of paper PMC12042874.
± gives the uncertainty stated by the source.

test: amyloid nucleation score (Sup35N fusion, yeast selection) (log enrichment); library NNK3; higher = more nucleation; inactive = no reads after selection
Procedure, shortened: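 Sup35N fusions to peptides of 20 random codons were expressed in psi-negative yeast, induced 24 hours with 100 μM copper sulfate, and grown 7 days at 30°C on medium lacking adenine and uracil. Input and output plasmid inserts were sequenced by Illumina. The nucleation score is the DiMSum log enrichment of output over input reads, centred on the mode score of non-aggregating sequences. Sequences with under 100 input reads were excluded.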

| Substance | amyloid nucleation score |
| --- | --- |
| WYMCLGSLMSIVF | inactive |
| WYMECTVACSSIICSWKWGL | inactive |
| WYMHTTLD | inactive |
| WYVCRSGVCGHALIALATRR | -0.483 ± 0.61 |
| WYVYKFCEPVGDRGRFVWCL | -0.212 ± 0.84 |
| YAFGGQLFAFVLRNENIFSG | 1.37 ± 0.085 |
| YAFLLYY | inactive |
| YAFVCSDV | inactive |
| YAHLWKNSEAGWSGKYSILW | inactive |
| YALLKHSTWYRVGQF | inactive |
| YANWLVLILYG | 1.32 ± 0.11 |
| YARYNTLVLSAKPPLLYDSW | inactive |
| YASDWVRRPGRN | inactive |
| YAVCSSLKYLIVESSKLTSV | 0.038 ± 0.36 |
| YCAFLTNPHVLDFSMNCCKL | 2.29 ± 0.059 |
| YCSLLSDERGSSVTGILAVF | inactive |
| YCYFFLGLCTYKSQYNGLRL | inactive |
| YDLGVAVLNRNSKRSC | inactive |
| YDRGLISWTCVRVSS | inactive |
| YDTLDTKCAVADKEIFCRIP | inactive |
| YEAYV | inactive |
| YELFS | 0.922 ± 0.11 |
| YENCSMYYSTTGIPAMCEIT | inactive |
| YEPTSAK | inactive |

| Substance | amyloid nucleation score |
| --- | --- |
| YESRGEGVMPSTQLWMSRLG | inactive |
| YFCSFREVRSHGQTLR | inactive |
| YFEYRPKMHHYSLCYMGEFS | inactive |
| YFGGRM | inactive |
| YFMIDRPALRLVDKKCGSRS | inactive |
| YFPSSCCNDFVFSSLEFQSM | 2.12 ± 0.055 |
| YFRFRSFLVLSDM | inactive |
| YFRYRSDVIAYISVIIGNLV | inactive |
| YFTSEPLSAPSQWGRVKGSA | inactive |
| YFTYGRQCMVVLDCLVDRRG | inactive |
| YFVFKALRSIPNGLMLSLRG | inactive |
| YFVLFVRQCVKLVMRFGSED | inactive |
| YFYWTCSDKRVTIEDVVPLH | inactive |
| YGFRRTACMCL | inactive |
| YGLVLGFRRTGYTCDDSLNW | inactive |
| YGVYISIFILCWNGGNNDDC | inactive |
| YHEGLYCGWSYNNCYLTFIG | 0.821 ± 0.25 |
| YHLFLDVVFFHSTKDESRKN | 0.187 ± 0.6 |
| YHVMV | inactive |
| YHYLSNVGMRWGDFTYSWFM | inactive |
| YIEAMNAGLPGEPARYFVVS | inactive |
| YIFEPV | 0.318 ± 0.77 |
| YIFVMLEHVG | inactive |
| YIGVRGFLLYPFNRVFEVMM | inactive |

| Substance | amyloid nucleation score |
| --- | --- |
| YIIRENLW | inactive |
| YIISRFYMAVWGDKPLYTGL | inactive |
| YIMCCGV | 1.61 ± 0.073 |
| YINLFLLSGSFVFRVDHHFI | 2.47 ± 0.088 |
| YISCMCANIRNIFVISIH | 1.81 ± 0.08 |
| YISSFKFRLSCLRYQIVNSV | inactive |
| YITLRGLWRYCQVMLVYVWK | inactive |
| YIVRDNEAYRKYGSANESGC | inactive |
| YIVSSSD | inactive |
| YKCHMSVYRGFINCNVVLMR | inactive |
| YKCMLYSFG | inactive |
| YKICSLACVKHGREPV | inactive |
| YKIYIFFGTVYMGVDRDQIG | 2.89 ± 0.063 |
| YKNSWLKW | inactive |
| YKPLFVCSRHLMNRELCTGY | inactive |
| YKSPFTGNCLYTVVIKDINL | 1.55 ± 0.085 |
| YKYRSLYFSRYIVLYVVGVL | inactive |
| YKYVTNDLSRVILRPVSARY | inactive |
| YLCIKNRLDKDRSW | inactive |
| YLCWAFDTMVSGDRGPRSC | -0.102 ± 0.81 |
| YLEVLVGSNQCFNMQG | inactive |
| YLFEYSEV | inactive |
| YLFVELYYL | 0.187 ± 0.75 |
| YLIYCL | inactive |

| Substance | amyloid nucleation score |
| --- | --- |
| YLLSL | inactive |
| YLMSYGRWDRWKWWYFYRLW | inactive |
| YLQFIDENS | inactive |
| YLRDNKAWLASSSKL | inactive |
| YLRGVFLRYGG | inactive |
| YLRWLLFYS | inactive |
| YLVFNQY | 1.17 ± 0.086 |
| YLVLKDTRYAYTLLRSMLSA | inactive |
| YLVSDE | inactive |
| YLVTIILI | 1.32 ± 0.16 |
| YMLHGTRRLRRETYGGAGRR | inactive |
| YMRLGRWWSFKAVDGRRLKW | -0.373 ± 1.3 |
| YMSFFIFIPIFLCVNLDRVC | 2.38 ± 0.061 |
| YMSLVRTGKNTQMVVYRLVL | inactive |
| YNFNV | inactive |
| YNFWMRQVVMRVTVCGNDEA | inactive |
| YNKGFALIRIVRQTERRLHT | inactive |
| YNKWCLHLCLRNLSMEEGMD | 1.87 ± 0.11 |
| YNLDDIDSITLYLAVSLCKV | inactive |
| YNLGRNS | inactive |
| YNMCLRDRVLFVIIDVRIFW | 0.035 ± 0.35 |
| YNRFKKLSMA | inactive |
| YNSYK | inactive |
| YNYFFPYTNVYNIFSIYKAV | 3.6 ± 0.078 |

| Substance | amyloid nucleation score |
| --- | --- |
| YPGFSAGCDVWQKFNYGVMT | inactive |
| YPLFMDYMLTCVHM | inactive |
| YPLSPRLLRTTTMHSTQGVG | inactive |
| YPRKFINLNRHWVVVNVFRM | inactive |
| YPSMLPGTGSIAIMDEFVIM | inactive |
| YQFDFTF | inactive |
| YQGKLI | inactive |
| YQICGCSCLSYLPFLTSSIF | inactive |
| YQNIDYMKGYKVISKD | inactive |
| YQRGVRFRSHWMRSGKWDHF | inactive |
| YQSKQRVGSS | inactive |
| YQVSI | inactive |
| YRAECNNFLMPLCCTEFFQI | 2.2 ± 0.087 |
| YRANINRVLVFQLN | 1.44 ± 0.086 |
| YRDRIVNHIVGLLGIGS | 1.16 ± 0.11 |
| YRFLHSEVEVAHFWLWCSSS | inactive |
| YRFVRGWFRMRIERPAAPCT | inactive |
| YRFYLVSVVFKTDEVARKSE | inactive |
| YRGIKFTYKPGLLGQFHRED | inactive |
| YRILINFLSWYLCIYYASCA | inactive |
| YRILTGLSLSFRVCIYFVW | inactive |
| YRKLFDFRRVSTLHFTKSN | inactive |
| YRLQLPYSVNEAVFLLVGSK | inactive |
| YRMTGKLYAVIECSDTVLSG | inactive |
